# B1: SCP1: small CTD phosphatase-1, full-length 261 aa human protein, SEQ ID NO:2 (protein, listed as Homo sapiens)
# chain: MDSSAVITQISKEEARGPLRGKGDQKSAASQKPRSRGILHSLFCCVCRDDGEALPAHSGAPLLVEENGAIPKTPVQYLLPEAKAQDSDKICVVIDLDETLVHSSFKPVNNADFIIPVEIDGVVHQVYVLKRPHVDEFLQRMGELFECVLFTASLAKYADPVADLLDKWGAFRARLFRESCVFHRGNYVKDLSRLGRDLRRVLILDNSPASYVFHPDNAVPVASWFDNMSDTELHDLLPFFEQLSRVDDVYSVLRQPRPGS
# Tests used:
# [1] = system: 28 aa CTD heptad repeat peptide with Ser 5 phosphate or Ser 2 phosphate; assay: CTD phosphopeptide phosphatase assay (malachite green); format: biochemical; conditions: 25 μM phosphopeptide, 60 mins at 37° C.
# Protocol: The indicated amounts of. SCP1 were incubated with the phosphopeptide substrate and phosphate released was measured as described infra.
# N-terminal biotinylated CTD phosphopeptides, comprised of 4 tandem repeats YSPTSPS and containing phosphoserine at position 2 or position 5, were synthesized (Alpha Diagnostics, San Antonio, Tex.). Phosphatase reaction mixtures (50 μl) containing 50 mM Tris-acetate, pH 5.5, 10 mM MgCl2, 0.5 mM DTT, 10% glycerol, 25 μM of phosphopeptide and wild type or mutant SCP1 were incubated for 60 mins at 37° C. The reactions were quenched by adding 0.5 ml of malachite green (Biomol). Phosphate release was measured at A620 and quantified relative to a phosphate standard curve.
# [2] = system: glucocorticoid receptor activity on GRE-TK-Luc construct; assay: Luciferase reporter assay, dexamethasone-stimulated glucocorticoid receptor; format: cell-based, human; conditions: 100 nM dexamethasone
# Source text: (§1) Gal4-DNA binding domain-SCP1 fusion protein expression plasmids-were cotransfected in HEK293 cells with a Gal 4-TKLuc reporter plasmid and luciferase gene expression quantitated. In all panels, results of triplicate transfections are shown +/− SD. Data is expressed as fold-activation experimental/control). […] The indicated amounts of SCP1 or mutant SCP1 expression plasmids were cotransfected in HEK293 cells along with Gal 4-VP16 expression and Gal 4-TK-Luc reporter plasmids and luciferase activity was quantitated. […] The indicated receptor expression plasmids were cotransfected with their cognate promoter-reporter plasmids with or without SCP1 or mutant SCP1 expression plasmids. Cells were treated or untreated with receptor-specific ligands as described infra. […] The indicated concentrations of SCP1 and mutant SCP1 expression plasmids were cotransfected with LMX1 and E47 expression plasmids and the rat insulin 1 promoter-luciferase reporter gene. Luciferase activity was measured as described.
# (§2) Tissue Culture and Transfections: Human 293, COS7 and CV1 cells were grown at 37° C. in DMEM supplemented with 10% normal calf serum (BRL). Sub-confluent cells were transfected in 6 well tissue culture dishes using Effectene (Qiagen) according to the manufacturer's instructions. Reporter and activator plasmids (100 ng each) and Flag SCP1 (80 ng) or its mutant were used per well. […]
# [3] = system: PPARγ receptor activity on PPARγ promoter response element; assay: Luciferase reporter assay, ligand-activated PPARγ receptor; format: cell-based, human
# Source text: as §1, §2
# [4] = system: Gal 4-TK-Luc reporter stimulated by Gal 4-VP16; assay: Luciferase reporter assay, Gal 4-VP16 stimulated gene expression; format: cell-based, human; conditions: HEK293 cells
# Source text: as §1, §2
molecule,measurement,setting,value
B1,dephosphorylation of Ser 5 versus Ser 2 phosphopeptide,[1],preferentially dephosphorylates the Ser 5 phosphopeptide
same,dexamethasone-stimulated glucocorticoid receptor activity,[2],inhibited
same,ligand-activated PPARγ receptor activity,[3],inhibited
same,Gal 4-VP16 stimulated luciferase activity,[4],strongly inhibited

# Source: US20070172470A1, “Phosphatase regulation of nucleic acid transcription” (The Regents of the University of California, priority 2003, published 2007)
